For experiment [1], the target named is Protein A (Staphylococcus aureus) (UniProt P38507). Description: LSPR (localized surface plasmon resonance, reflectance spectroscopy); PrA covalently coupled to the nanostructured gold layer via cysteamine/glutardialdehyde; analyte flown over in PBS pH 7.4, 0.57 ml/min; equilibrium shifts of three sensors fitted to a Langmuir isotherm.
Experiment [2] shares this target. Description: LSPR (localized surface plasmon resonance, reflectance spectroscopy); PrA physically adsorbed on the nanostructured gold layer; analyte flown over in PBS pH 7.4, 0.57 ml/min; equilibrium shifts of three sensors fitted to a Langmuir isotherm.
The target in another experiment is T1, asialofetuin (UniProt P12763 19-359, glycoprotein presenting terminal galactose residues).
T1 construct: asialofetuin (desialylated fetuin), printed mass 48 kDa; Physically adsorbed on the gold sensor; also called ASF; source: bought: Sigma
T1 sequence (looked up): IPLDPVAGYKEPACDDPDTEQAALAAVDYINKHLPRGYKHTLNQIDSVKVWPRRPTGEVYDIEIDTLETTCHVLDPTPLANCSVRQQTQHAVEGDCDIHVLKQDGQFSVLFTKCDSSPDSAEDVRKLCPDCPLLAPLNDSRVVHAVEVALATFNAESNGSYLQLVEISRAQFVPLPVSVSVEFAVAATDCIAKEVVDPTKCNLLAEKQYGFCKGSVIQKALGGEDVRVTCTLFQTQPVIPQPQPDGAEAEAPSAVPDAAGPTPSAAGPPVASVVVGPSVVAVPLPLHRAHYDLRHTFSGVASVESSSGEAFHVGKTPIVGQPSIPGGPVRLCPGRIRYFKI
In words: LSPR (localized surface plasmon resonance, reflectance spectroscopy); ASF physically adsorbed on the nanostructured gold layer; analyte in lectin buffer (10 mM HEPES, 150 mM NaCl, 0.1 mM CaCl2, pH 7.5); equilibrium shifts of three sensors fitted to a Langmuir isotherm. Particulars: both partners purified.

A word on the Kd: it is the concentration at which binding is half-saturated. Regarding “immunoglobulin G (IgG, 150 kDa) from rabbit (antibody)”, the figures for the equilibrium dissociation constant (Kd) in experiment [1] and in experiment [2] were 150 nM and 140 nM, respectively.

B1: Erythrina cristagalli lectin (natural protein, UniProt P83410 1-239, looked up)
chain: VETISFSFSEFEPGNDNLTLQGAALITQSGVLQLTKINQNGMPAWDSTGRTLYTKPVHMWDSTTGTVASFETRFSFSIEQPYTRPLPADGLVFFMGPTKSKPAQGYGYLGVFNNSKQDNSYQTLAVEFDTFSNPWDPPQVPHIGIDVNSIRSIKTQPFQLDNGQVANVVIKYDAPSKILHVVLVYPSSGAIYTIAEIVDVKQVLPDWVDVGLSGATGAQRDAAETHDVYSWSFQASLPE
notes: lectin of the plant Erythrina cristagalli; printed mass 54 kDa; The printed 54 kDa probably means a dimer of the lectin chain; also called ECL; source: bought: Vector Laboratories via BIOZOL Diagnostica
Consider B1, for which, in the experiment with asialofetuin, the Kd is 490 nM.

The record behind these values is publication PMC7214386, “Plasmonic biosensors fabricated by galvanic displacement reactions for monitoring biomolecular interactions in real time” (Analytical and Bioanalytical Chemistry, 2020).
